Results on one molecule are retold here after PMC10248720.

The data set concerns the target T1, WOX11 (rice, UniProt Q0D3I7 1-262).
T1 sequence: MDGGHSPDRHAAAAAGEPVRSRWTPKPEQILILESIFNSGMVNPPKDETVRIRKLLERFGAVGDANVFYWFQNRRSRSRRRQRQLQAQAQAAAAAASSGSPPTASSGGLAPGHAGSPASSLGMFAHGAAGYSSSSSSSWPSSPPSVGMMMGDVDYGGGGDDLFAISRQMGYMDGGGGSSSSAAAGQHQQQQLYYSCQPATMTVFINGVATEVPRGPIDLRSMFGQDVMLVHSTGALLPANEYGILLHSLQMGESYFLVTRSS
Kind of data set: EMSA. Background: A gel shift assay detects complexes by their altered migration in electrophoresis.

B1: PRX111-P2 (dsDNA)
DNA 1: TTCACTTAGCTTAATGCTGCTGGTGGC
DNA 2: GCCACCAGCAGCATTAAGCTAAGTGAA
Take B1: the binding result is reported as “binds”.
